Experimental data as given in PMC6934851, “Yeast R2TP Interacts with Extended Termini of Client Protein Nop58p” (Scientific Reports, 2019).

B1: Maltose Binding Protein (MBP)-fused Nop58p_447 (domain or fragment, S. cerevisiae, UniProt Q12499 1-447, looked up)
chain: MAYVLTETSAGYALLKASDKKIYKSSSLIQDLDSSDKVLKEFKIAAFSKFNSAANALEEANSIIEGKVSSQLEKLLEEIKKDKKSTLIVSETKLANAINKLGLNFNVVSDAVTLDIYRAIKEYLPELLPGMSDNDLSKMSLGLAHSIGRHKLKFSADKVDVMIIQAIALLDDLDKELNTYAMRCKEWYGWHFPELAKIVTDSVAYARIILTMGIRSKASETDLSEILPEEIEERVKTAAEVSMGTEITQTDLDNINALAEQIVEFAAYREQLSNYLSARMKAIAPNLTQLVGELVGARLIAHSGSLISLAKSPASTIQILGAEKALFRALKTKHDTPKYGLLYHASLVGQATGKNKGKIARVLAAKAAVSLRYDALAEDRDDSGDIGLESRAKVENRLSQLEGRDLRTTPKVVREAKKVEMTEARAYNADADTAKAASDSESDSDDE
notes: In the cross-linking and cryo-EM sections the text often calls this MBP fusion simply Nop58p_447; also called MBP-Nop58p_447; MBP-Nop58_447; source: E. coli, purified (amylose, monoQ, gel filtration); not shown: MBP, N-terminal, kept

Legend:
[1] = biological target: T1, Maltose Binding Protein (MBP)-fused Nop58p_447 (S. cerevisiae, UniProt Q12499 1-447); experiment: ITC
T1 chain: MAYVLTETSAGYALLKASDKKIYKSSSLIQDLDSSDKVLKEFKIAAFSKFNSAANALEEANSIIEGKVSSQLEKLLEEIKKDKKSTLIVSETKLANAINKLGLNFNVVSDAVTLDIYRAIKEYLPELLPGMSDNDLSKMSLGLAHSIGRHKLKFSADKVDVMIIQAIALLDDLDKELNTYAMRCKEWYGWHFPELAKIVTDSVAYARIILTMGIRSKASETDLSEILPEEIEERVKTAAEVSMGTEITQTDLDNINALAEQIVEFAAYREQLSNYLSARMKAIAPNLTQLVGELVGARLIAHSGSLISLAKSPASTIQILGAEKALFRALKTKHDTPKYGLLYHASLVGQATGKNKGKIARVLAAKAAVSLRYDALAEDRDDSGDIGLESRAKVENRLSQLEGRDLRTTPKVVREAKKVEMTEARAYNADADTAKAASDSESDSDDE

[2] = biological target: B1; experiment: ITC; MBP-Nop58p in the sample cell (MBP-Nop58p_447 at 7.8 μM), Pih1p-Tah1p in the injector at 99.6 μM; 25 °C; 25 mM HEPES, 150 mM NaCl, 5% glycerol, 5 mM beta-ME, pH 7.5; One Site model; conditions: both partners purified
Rvb1p = biological target: T2, Rvb1p (yeast, UniProt Q03940 1-463); experiment: cross-linking; co-purified MBP-Nop58p_447-R2TP complex, BS3-d0/BS3-d4 for 30 min, SDS-PAGE, trypsin, mass spectrometry; conditions: both partners purified
T2 construct: Rvb1p, yeast AAA+ ATPase; Subunit as it stood in the MBP-Nop58p_447-R2TP complex; also called Ruv1p; source: purified as Rvb1/2p heterocomplex, within reconstituted R2TP
T2 sequence (Q03940 whole entry): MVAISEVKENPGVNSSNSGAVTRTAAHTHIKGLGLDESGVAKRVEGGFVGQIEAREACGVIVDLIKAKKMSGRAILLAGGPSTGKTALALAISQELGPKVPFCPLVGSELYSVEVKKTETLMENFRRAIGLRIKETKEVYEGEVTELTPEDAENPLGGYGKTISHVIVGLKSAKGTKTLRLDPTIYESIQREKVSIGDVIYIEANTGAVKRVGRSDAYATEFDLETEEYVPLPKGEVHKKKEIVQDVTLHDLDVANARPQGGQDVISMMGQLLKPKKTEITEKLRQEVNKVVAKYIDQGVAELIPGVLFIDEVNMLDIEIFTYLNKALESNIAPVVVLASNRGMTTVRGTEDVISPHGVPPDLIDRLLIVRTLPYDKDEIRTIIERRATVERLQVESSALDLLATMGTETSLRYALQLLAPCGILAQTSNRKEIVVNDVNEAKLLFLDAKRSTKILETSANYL

[3] = biological target: B1; experiment: as above; conditions: both partners purified
Rvb2p = biological target: T3, Rvb2p (yeast, UniProt Q12464 1-471); experiment: as above; conditions: both partners purified
T3 construct: Rvb2p, yeast AAA+ ATPase; Subunit as it stood in the MBP-Nop58p_447-R2TP complex; also called Ruv2p; source: purified as Rvb1/2p heterocomplex, within reconstituted R2TP
T3 sequence (Q12464 whole entry): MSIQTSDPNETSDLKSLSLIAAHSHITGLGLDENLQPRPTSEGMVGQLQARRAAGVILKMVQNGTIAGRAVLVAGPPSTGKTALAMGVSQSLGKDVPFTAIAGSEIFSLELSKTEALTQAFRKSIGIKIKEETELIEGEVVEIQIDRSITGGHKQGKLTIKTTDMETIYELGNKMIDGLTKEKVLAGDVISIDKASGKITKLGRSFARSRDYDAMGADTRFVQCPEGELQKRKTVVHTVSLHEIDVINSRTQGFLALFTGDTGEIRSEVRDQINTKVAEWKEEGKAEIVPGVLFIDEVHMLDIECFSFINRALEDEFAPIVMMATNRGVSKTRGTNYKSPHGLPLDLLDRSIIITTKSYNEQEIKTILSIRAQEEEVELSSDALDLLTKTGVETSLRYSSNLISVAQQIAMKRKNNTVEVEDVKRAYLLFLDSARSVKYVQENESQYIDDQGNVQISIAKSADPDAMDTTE

Binder	Kd [1] [nM]	stoichiometry N [2]	binding result (Rvb1p)	binding result [3]	binding result (Rvb2p)
Pih1p-Tah1p heterodimer (complex, yeast, Tah1p, yeast, YCR060W; also called His-Pih1p-Tah1p; source: purified) chain 1: MADFLLRPIKQRHRNEDKYVSVDAADGSVSKIEPIADFVIKTKLLSANGPEKLQDGRKVFINVCHSPLVPKPEVDFNARIVFPLIIQNEWEIPIITSCYRMDHDKKGQECYVWDCCINSDCSRWICDDIQLREILVEWCLESCEIRDSVVLCRDRIAFPKMKKKGAELPALEVLNDELHQDYKAKMHKIIEEEAGDPMSILRGRNDDGDDNNDPDDGTLPPLFPIENKISGAKIEEIDKNEIAHRNLKQAPAPAPAPHEQQEDVPEYEVKMKRFKGAAYKLRILIENKAPNSKPDRFSPSYNFAENILYINGKLSIPLPRDIVVNAADIKIFHIRKERTLYIYI chain 2: MSQFEKQKEQGNSLFKQGLYREAVHCYDQLITAQPQNPVGYSNKAMALIKLGEYTQAIQMCQQGLRYTSTAEHVAIRSKLQYRLELAQGAVGSVQIPVVEVDELPEGYDRS	440	1			
Pih1p (natural protein, yeast, UniProt P38768 1-344, looked up, Subunit as it stood in the MBP-Nop58p_447-R2TP complex; source: purified as His-Pih1p-Tah1p, within reconstituted R2TP) MADFLLRPIKQRHRNEDKYVSVDAADGSVSKIEPIADFVIKTKLLSANGPEKLQDGRKVFINVCHSPLVPKPEVDFNARIVFPLIIQNEWEIPIITSCYRMDHDKKGQECYVWDCCINSDCSRWICDDIQLREILVEWCLESCEIRDSVVLCRDRIAFPKMKKKGAELPALEVLNDELHQDYKAKMHKIIEEEAGDPMSILRGRNDDGDDNNDPDDGTLPPLFPIENKISGAKIEEIDKNEIAHRNLKQAPAPAPAPHEQQEDVPEYEVKMKRFKGAAYKLRILIENKAPNSKPDRFSPSYNFAENILYINGKLSIPLPRDIVVNAADIKIFHIRKERTLYIYI			binds	binds	
B1			binds		binds
